Assay: label from the status in PepcDB records
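Note: failed if final PepcDB status was selected cloned or expressed and not failed if soluble or beyond.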

With “MIQAFLEKLPHLDVYGNPQYFFYLILAVLPIYIGLFFKKRFALYEIIFSLSFIVMMLTGSTFNQLKSLLAYVVGQSLLVFIYKAYRKRFNHTLVFYVTVCLSIFPLFLVKLIPAISEDGHQSLFGFLGISYLTFRAVAMIIEMRDGVLKEFTLWEFLRFLLFFPTFSSGPIDRFKRFNEDYINIPDRNELLDMLGQAIHYLMLGFLYKFILAYIFGSLIMPPLKELALEQGGVFNWPTLGVMYAFGFDLFFDFAGYTMFALAISNLMGIKSPINFDKPFKSRDLKEFWNRWHMSLSFWFRDFVFMRLVKLLVKNKVFKNRNVTSSVAYIINMLLMGFWHGLTWYYIAYGLFHGIGLVINDAWVRKKKNINKERRLAKKPLLPENKWTYALGVFITFNVVMFSFLIFSGFLDLLWFPQPHNK” the protein production was “failed”.
In the case of “MIQARSRRPLSCSLRSSSQNPIATTFLTGGKMDRIVRQILVKLLGGERSVYELIYYQDASLREFFELLNSLRDEGLIEVESGKVRITEKGREVAEKERLKFCGDVECECCEGTGLSINPYFKEILQKYSEIAKDRPETIEVYDQGFISLEGVIRRVEFVYDRGDLNGRIFVVGDDDLFGIAASLTGMPEKVAVVDIDERLINFINRVAEEYSLNVEAFVYDVQQAFPDELKRKFDVFVTDPVETIPGLKLFLSRGVSTLKGVGGAGYFGITTLEASRRKWYEIQRMIHDMGFIITDLRRRFNVYPEDEKNFFRFQEKLPIVRHLQAKVDFNWYNSTLFRIEAVKEPKPIVEGEMIIDEKVYKDDESWATPY”, the protein production is reported as “failed”.
With “MIQCEECLCWQHSVCMGLLEESIPEQYICYICRDPPGQRWSAKYRYDKEWLNNGRMCGLSFFKENYSHLNAKKIVSTHHLLADVYGVTEVLHGLQLKIGILKNKHHPDLHLWACSGKRKDQDQIIAGVEKKIAQDTVNREEKKYVQNHKEPPRLPLKMEGTYITSEHSYQKPQSFGQDCKSLADPGSSDDDDVSSLEEEQEFHMRSKNSLQYSAKEHGMPEKNPAEGNTVFVYNDKKGTEDPGDSHLQWQLNLLTHIENVQNEVTSRMDLIEKEVDVLESWLDFTGELEPPDPLARLPQLKRHIKQLLIDMGKVQQIATLCSV” the protein production was “not failed”.
In the case of “MIQLVIRLGLLALLIFWTLYLIRPFVTILVWALVLAVAFNPIFLVLAKILGGRAKLAAGLLTAINLAIVIGPAAWLGLGAVDGIRDFAGELAAGDLVIPSPPAAIKTWPLIGTPLYEFWDQASTNLRSVVQRIAPYLKPFAGTLLGIAGDAGVGTIKFLLSVVVAGCLFPYGPQLVAAGRSFLSRIVPEQSEHFLDLAGATIRAVAQGVIGIAVVQALLAGIGFKLAGIPIAGLLALLVLLLSIVQIGGAIIMLPVMIWIWTDKDVTVAVLLTLFLGIVSILDNILKPLVMGRGLTTPALVILIGVIGGTLGHGIVGLFIGPIVLSVAWELTVAWIRTDRASAASQATIDR”, the protein production is reported as “failed”.
In the case of “MIQMDGGDRLRVTLLDRMSTVESSRSCLTLEAILMADKNRTSPQILSPPPSRSQSNRSLVEVMQREHRHSRDKTAWKSLREKLRLKRNGSVWISSNSIPSLDTPIPNRDNVSHQLGFLLSNSGNVTEEASSVEGRIRLGAVLAEERALSAREEETPAEREVEPARMSLMELLEENEGQMSFVSVDGEAEEEVAAVTAAEISCCVCMVRSKGAAFIPCGHTFCRLCSRELWVQRGNCPLCNTTILEVLDLF”, the protein production is reported as “failed”.
For “MIQMVKRVHIFDWHKEHARKIEEFAGWEMPIWYSSIKEEHLAVRNAVGIFDVSHMGEIVFRGKDALKFLQYVTTNDISKPPAISGTYTLVLNERGAIKDETLVFNMGNNEYLMICDSDAFEKLYAWFTYLKRTIEQFTKLDLEIELKTYDIAMFAVQGPKARDLAKDLFGIDINEMWWFQARWVELDGIKMLLSRSGYTGENGFEVYIEDANPYHPDESKRGEPEKALHVWERILEEGKKYGIKPCGLGARDTLRLEAGYTLYGNETKELQLLSTDIDEVTPLQANLEFAIYWDKDFIGKDALLKQKERGVGRKLVHFKMIDKGIPREGYKVYANGEMIGEVTSGTLSPLLNVGIGIAFVKEEYAKPGIEIEVEIRGQRKKAVTVTPPFYDPKKYGLFRET”, the protein production was “not failed”.
For “MIQVPASFDIQGHRGCRGLLPENTIAAFTKALLLGVTTLEFDLVISKDNRVVVSHDTFFHHEITMMVDGEDVTEANEKNFNLYAMNYADIKEIDVGMKTHPRFKSQKKVPAVKPLFRELIETAEKLSAKIQYNGEIKSTVEGDNIDHPNIALFCDLVVAEIKKAHITDRFTLQSFDVRALEYMHSQYPDIKLSYLVETKGTLKKQLEKLSFTPAVYSPDVTLVSKKDIDAAHKLGMRVIPWTVNTKEEIETLISLGVDGIITDYPDLFFEK”, the protein production was “not failed”.
With “MIREFFQKYFIDPIKYNTGYNPVNTLVYAIILGIATLLVYKVLKRLKIEINNAFFRALIPYMIFGAFTRALTDAGVFPRTYLTVSPGIYFLVFVIAFSALLVSHKFAKDWRGVFLWFGWGLVMVDLAAMSANISKINFDFAVLKYFIPFLILAELVVFLLSKKVSLVRENSYLFYAHFYDATTTFVGVDFMGYWEQHVLPRLLIGLTGTAAVMYVLKFIILFAAVWLLKELEKEGEEKELLDFIKMVIFILGFAPGTRNLLRMLMGV” the protein production was “failed”.
In the case of “MIRFYMSLSVVKHTILYLCFIFLLLYLKKRYPDNVIIGFFLKIRWCFINSMLHLHFIAIWIAGYRNRCSNSSWNFGYFGCCVETQAKVGRTATNLLLTES”, the protein production is reported as “failed”.
In the case of “MIRIKTPSEIEKMKKAGKAVAVALREVRKVIVPGKTAWDVETLVLEIFKKLRVKPAFKGYGGYKYATCVSVNEEVVHGLPLKEKVFKEGDIVSVDVGAVYQGLYGDAAVTYIVGETDERGKELVRVTREVLEKAIKMIKPGIRLGDVSHCIQETVESVGFNVIRDYVGHGVGRELHEDPQIPNYGTPGTGVVLRKGMTLAIEPMVSEGDWRVVVKEDGWTAVTVDGSRCAHFEHTILITENGAEILTKEG”, the protein production is reported as “not failed”.
In the case of “MIRKYRYGAPFDTEALTEKIETAEEAFPYGEISQKEGFAFTYIMDEDDIVYGLGESNRGINKRGYCYISNCTDDPIHTEDKRSLYGAHNFIIVSGKTTFGLFFDYPSKLTFDIGYTRMDTLKVSCENADLDIYVIEGENAYDIVKQFRRVIGRSYIPPKFAFGFGQSRWGYTTKEDFRAVAKGYRENHIPIDMIYMDIDYMQDFKDFTVNEKNFPDFPEFVKEMKDQELRLIPIIDAGVKVEKGYEVYEEGVKNNYFCKREDGSDFVAAVWPGDTHFPDMLNPEARKWFGDKYRFLIDQGIEGFWNDMNEPAIFYSSEGLAEAKEFAGEFAKDTEGKIHPWAMQAKMKDIVNSPEDYKRFYHNVNGKKIRHDKVHNLFGYNMTRAAGEAFERIDPEKRFLMFSRSSYIGMHRYGGIWMGDNKSWWSHILLNLKMLPSLNMCGFMYTGADLGGFGDDTTRDLLLRFLALGVFTPLMRDHAAEGTREQECYQFENIEDFRSVINARYRLVPYLYSEYMKAALNDDMYFKPLGFVYPDDKMAIRVEDQLMLGNEIMIAPVYEQNARGRYVYLPEEMKFIKFMPDGSISEEVLEKGVHYVDVALNEVPLFIRSGKCIPVAEAAECVKDIDTENMQLIGYEGSSYTLYEDDGIHKDYDKKENYRVLTK”, the protein production is reported as “not failed”.
For “MIRLAAIDVDGTLTDRDRLISTKAIESIRSAEKKGLTVSLLSGNVIPVVYALKIFLGINGPVFGENGGIMFDNDGSIKKFFSNEGTNKFLEEMSKRTSMRSILTNRWREASTGFDIDPEDVDYVRKEAESRGFVIFYSGYSWHLMNRGEDKAFAVNKLKEMYSLEYDEILVIGDSNNDMPMFQLPVRKACPANATDNIKAVSDFVSDYSYGEEIGQIFKHFELM”, the protein production was “not failed”.
For “MIRMTKVDIISGFLGAGKTTFIKQLINQAFAGEKLVLIENEFGEIGIDGGFLKNAGIEITEMNSGCICCTLVGDFSKALKKVLEEYQPDRVIIEPSGVGKLSDIMKAIEDVKKDADIAIDGRITVVDGKKAKLYLKNFGEFFKDQVEHASAIVISRTQAMSDDKIEECVHMLRDENKEAAIISTPWAQLGKEAIIHALEKGSELAGLLEETHGQECCHHEHHHHEHEACGHEHHHHHADEIFTSWGKETAHKYTKEELDFMLKALSETEAYGTVLRSKGIIQMSDGSWRQFDLVPQEYEVREGQPDYTGRLCVIGTDLKEEELMTLFHLKLEHHHHHH”, the protein production was “failed”.
With “MIRNSGIHHEKLSQLLQSGHSLWVLYLDIAKFHEVEFRQGYRACAQILDLVLTEMKHTLHNYMHLFHTILLDYQGGDDFLFYFAPNENTPWSIAKLIPEFVPTLESRINHRIQRLVNETITLHSGLVECKPQPGRSVDYLLYGALKEAFLLNKSEPDPLYFSHREEVNRLLEEPQTYLSSAFQPILDVVSGEFFGFEALTRLKPPSSFAGIADLFPFAEKIGQLYPVETICRRTAILNSSQILRPKELLFLNVEPQVLTDPEFSSGQTRRLLETQGLTPSDVVLEITERSAIANYGTFREALEHYRKQGYLIALDDVGAGYSSLQSIAELHPDFLKIDRCLIQGIHLDPIKWALFETFVTFSRRIGCRILAEGVETQEEMRTVVQLGADYVQGYFIAKPSFTRPELSDPVTQIVQSQQRLSFNSEKTVQHLLEPLPLVTPQTTVNAVQNYFEEHAKIWLIGVADKGELLGVVQRDNLYSALATPFGVSLYSQRPVTSLMNNKQLLIEDTTPIEVASSLAMARPDAHLYDGIVVVQQQKPIGMIRVASLIKAMSDTQLQIAQGASPLTGLPGNSAIEQEIKRRLNSGNAFGMIYADLNQFKAFNDTYGFQYGDSIIKLLGKILMQDSLKADDLAFVGHVGGDDFIILTTQNVTKTLGETILLSFQEQLSAMQGAQDLSLALAGLIIYPHTAWTPATLSERIAAVKREAKKAHCNYFLLRE” the protein production was “failed”.
In the case of “MIRNTSNGWGSVSRWLHWILALTIIGMIGFGWWMNHIPARPDRFFYRSIHADIGYVILLLTVLRLVWRVVNPTPALPADSQPWQRLAARISHGALYLAVIAVIVLGWAHSGAHAPDYSDFFGLFHVPQFTSPDRAAANAYEDRHILFAYVLLALIAVHVVAALWHHFIRRDRVVTRMVADEAG”, the protein production is reported as “failed”.
In the case of “MIRTAKRTELIEVAQGRRPADIVIKGGTVVNVYSGEFLRQNVAIYHDAIAYVGEKEVAVDEHTIVIDAEGMYVSPGFIEPHAHPWVLYNPVSMTAKVLPLGTTTTVNDNLFFYLHFGVDGFRQLIEDLRVLPGHFFWLVRLVSQADFPGERDWFDPRHIQELLAMDEVVGTAEVTRWPLLYQGDPFLLETIEAAKRAGKVVDGHTAGCSYEKLNSIAASGVSACHEAITAEEALHRLRLGMWTTLRHSSLRPDFPEIIRLITEKKVSTQRITMTTDGPHPGFIEREGFVDGLVRKAVELGVPPMTALQMATINAATYLQLDDEIGGIAPGKLADILLLPDLVTFQPSLVIAKGRIVARDGKLLAPLPEIDWKRYVSKKPFLFAKERLDDERLYRYPHSESDQPVPVMYFKSNVITERKDVALPSVDGYADLSHHPGLLYAALIDRNGQWVAKAILERFALDIDGMASTYNTTTELLVIGKQPEAMAAAAKRVLEMGGGIVVIDGGRPVVEIPLPFTGMMTTDDSFDTAVRFHDELLSALQERGFPFHDILYTLLFLTCDFLPGLRLIPYGLYDVKRNEILLPAEKIGEKVVK”, the protein production is reported as “failed”.
